Measured values from patent publication US20260297144 (published 2026).

Columns and labels:
C3b [1] = target: T1, C3b (human, UniProt P01024); test: SPR steady state, Fc 4-1, 10C
C3b [2] = target: T1, C3b; test: SPR steady state, Fc 2-1, 10C
C3b [3] = target: T1, C3b; test: SPR steady state, Fc 3-1, 10C

T1 sequence (P01024 23-667, chain 1 of 2): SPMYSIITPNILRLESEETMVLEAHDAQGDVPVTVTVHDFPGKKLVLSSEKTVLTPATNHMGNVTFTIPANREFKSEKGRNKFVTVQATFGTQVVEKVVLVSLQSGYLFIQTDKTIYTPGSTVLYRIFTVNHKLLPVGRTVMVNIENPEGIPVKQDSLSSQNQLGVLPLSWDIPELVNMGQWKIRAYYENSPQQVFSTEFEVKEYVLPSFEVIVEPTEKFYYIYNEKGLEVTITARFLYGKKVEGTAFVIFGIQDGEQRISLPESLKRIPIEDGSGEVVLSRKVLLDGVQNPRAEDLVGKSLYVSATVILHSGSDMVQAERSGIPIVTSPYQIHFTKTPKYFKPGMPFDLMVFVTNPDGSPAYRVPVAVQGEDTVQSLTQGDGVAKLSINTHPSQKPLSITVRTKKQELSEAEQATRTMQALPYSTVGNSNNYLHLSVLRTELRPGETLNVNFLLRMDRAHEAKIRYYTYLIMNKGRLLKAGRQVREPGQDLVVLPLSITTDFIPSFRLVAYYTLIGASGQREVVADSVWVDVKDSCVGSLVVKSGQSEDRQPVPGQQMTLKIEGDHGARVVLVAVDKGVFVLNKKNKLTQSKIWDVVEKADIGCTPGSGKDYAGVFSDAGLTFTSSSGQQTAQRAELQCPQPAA
T1 sequence (P01024 749-1663, chain 2 of 2): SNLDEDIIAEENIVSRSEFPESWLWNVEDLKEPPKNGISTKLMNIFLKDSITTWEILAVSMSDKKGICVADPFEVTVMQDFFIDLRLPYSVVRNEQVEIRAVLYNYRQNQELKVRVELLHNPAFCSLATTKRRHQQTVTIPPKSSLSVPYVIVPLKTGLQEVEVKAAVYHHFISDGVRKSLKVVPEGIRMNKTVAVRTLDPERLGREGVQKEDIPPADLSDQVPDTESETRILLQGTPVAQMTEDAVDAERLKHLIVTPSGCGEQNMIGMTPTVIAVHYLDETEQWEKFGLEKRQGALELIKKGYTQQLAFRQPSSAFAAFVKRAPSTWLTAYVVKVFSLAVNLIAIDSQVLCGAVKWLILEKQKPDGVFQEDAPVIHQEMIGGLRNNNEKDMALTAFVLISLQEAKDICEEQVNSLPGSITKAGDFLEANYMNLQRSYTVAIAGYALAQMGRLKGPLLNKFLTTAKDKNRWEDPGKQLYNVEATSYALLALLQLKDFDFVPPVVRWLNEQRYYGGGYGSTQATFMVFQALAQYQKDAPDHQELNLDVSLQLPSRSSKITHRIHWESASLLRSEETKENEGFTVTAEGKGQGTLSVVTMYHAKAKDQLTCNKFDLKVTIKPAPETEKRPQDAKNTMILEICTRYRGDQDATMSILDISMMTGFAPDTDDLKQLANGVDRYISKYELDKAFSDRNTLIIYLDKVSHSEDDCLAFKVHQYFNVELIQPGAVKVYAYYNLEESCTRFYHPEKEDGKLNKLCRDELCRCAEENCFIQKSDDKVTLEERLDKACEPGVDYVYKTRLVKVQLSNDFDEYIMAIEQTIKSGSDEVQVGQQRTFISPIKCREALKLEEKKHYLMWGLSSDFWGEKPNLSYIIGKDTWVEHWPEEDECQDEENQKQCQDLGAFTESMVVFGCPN

Row | Binder | Kd (C3b [1]) [nM] | Kd (C3b [2]) [nM] | Kd (C3b [3]) [nM]
1 | Sial-moss FH (protein) EDCNELPPRRNTEILTGSWSDQTYPEGTQAIYKCRPGYRSLGNIIMVCRKGEWVALNPLRKCQKRPCGHPGDTPFGTFTLTGGNVFEYGVKAVYTCNEGYQLLGEINYRECDTDGWTNDIPICEVVKCLPVTAPENGKIVSSAMEPDREYHFGQAVRFVCNSGYKIEGDEEMHCSDDGFWSKEKPKCVEISCKSPDVINGSPISQKIIYKENERFQYKCNMGYEYSERGDAVCTESGWRPLPSCEEKSCDNPYIPNGDYSPLRIKHRTGDEITYQCRNGFYPATRGNTAKCTSTGWIPAPRCTLKPCDYPDIKHGGLYHENMRRPYFPVAVGKYYSYYCDEHFETPSGSYWDHIHCTQDGWSPAVPCLRKCYFPYLENGYNQNYGRKFVQGKSIDVACHPGYALPKAQTTVTCMENGWSPTPRCIRVKTCSKSSIDIENGFISESQYTYALKEKAKYQCKLGYVTADGETSGSITCGKDGWSAQPTCIKSCDIPVFMNARTKNDFTWFKLNDTLDYECHDGYESNTGSTTGSIVCGYNGWSDLPICYERECELPKIDVHLVPDRKKDQYKVGEVLKFSCKPGFTIVGPNSVQCYHFGLSPDLPICKEQVQSCGPPPELLNGNVKEKTKEEYGHSEVVEYYCNPRFLMKGPNKIQCVDGEWTTLPVCIVEESTCGDIPELEHGWAQLSSPPYYYGDSVEFNCSESFTMIGHRSITCIHGVWTQLPQCVAIDKLKKCKSSNLIILEEHLKNKKEFDHNSNIRYRCRGKEGWIHTVCINGRWDPEVNCSMAQIQLCPPPPQIPNSHNMTTTLNYRDGEKVSVLCQENYLIQEGEEITCKDGRWQSIPLCVEKIPCSQPPQIEHGTINSSRSSQESYAHGTKLSYTCEGGFRISEENETTCYMGKWSSPPQCEGLPCKSPPEISHGVVAHMSDSYQYGEEVTYKCFEGFGIDGPAIAKCLGEKWSHPPSCIKTDCLSLPSFENAIPMGEKKDVYKAGEQVTYTCATYYKMDGASNVTCINSRWTGRPTCRDTSCVNPPTVQNAYIVSRQMSKYPSGERVRYQCRSPYEMFGDEEVMCLNGNWTEPPQCKDSTGKCGPPPPIDNGDITSFPLSVYAPASSVEYQCQNLYQLEGNKRITCRNGQWSEPPKCLHPCVISREIMENYNIALRWTAKQKLYSRTGESVEFVCKRGYRLSSRSHTLRTTCWDGKLEYPTCAKR | 51 | 48.2 | 42.9
2 | Serum derived FH (sd-FH) (protein) EDCNELPPRRNTEILTGSWSDQTYPEGTQAIYKCRPGYRSLGNVIMVCRKGEWVALNPLRKCQKRPCGHPGDTPFGTFTLTGGNVFEYGVKAVYTCNEGYQLLGEINYRECDTDGWTNDIPICEVVKCLPVTAPENGKIVSSAMEPDREYHFGQAVRFVCNSGYKIEGDEEMHCSDDGFWSKEKPKCVEISCKSPDVINGSPISQKIIYKENERFQYKCNMGYEYSERGDAVCTESGWRPLPSCEEKSCDNPYIPNGDYSPLRIKHRTGDEITYQCRNGFYPATRGNTAKCTSTGWIPAPRCTLKPCDYPDIKHGGLYHENMRRPYFPVAVGKYYSYYCDEHFETPSGSYWDHIHCTQDGWSPAVPCLRKCYFPYLENGYNQNYGRKFVQGKSIDVACHPGYALPKAQTTVTCMENGWSPTPRCIRVKTCSKSSIDIENGFISESQYTYALKEKAKYQCKLGYVTADGETSGSITCGKDGWSAQPTCIKSCDIPVFMNARTKNDFTWFKLNDTLDYECHDGYESNTGSTTGSIVCGYNGWSDLPICYERECELPKIDVHLVPDRKKDQYKVGEVLKFSCKPGFTIVGPNSVQCYHFGLSPDLPICKEQVQSCGPPPELLNGNVKEKTKEEYGHSEVVEYYCNPRFLMKGPNKIQCVDGEWTTLPVCIVEESTCGDIPELEHGWAQLSSPPYYYGDSVEFNCSESFTMIGHRSITCIHGVWTQLPQCVAIDKLKKCKSSNLIILEEHLKNKKEFDHNSNIRYRCRGKEGWIHTVCINGRWDPEVNCSMAQIQLCPPPPQIPNSHNMTTTLNYRDGEKVSVLCQENYLIQEGEEITCKDGRWQSIPLCVEKIPCSQPPQIEHGTINSSRSSQESYAHGTKLSYTCEGGFRISEENETTCYMGKWSSPPQCEGLPCKSPPEISHGVVAHMSDSYQYGEEVTYKCFEGFGIDGPAIAKCLGEKWSHPPSCIKTDCLSLPSFENAIPMGEKKDVYKAGEQVTYTCATYYKMDGASNVTCINSRWTGRPTCRDTSCVNPPTVQNAYIVSRQMSKYPSGERVRYQCRSPYEMFGDEEVMCLNGNWTEPPQCKDSTGKCGPPPPIDNGDITSFPLSVYAPASSVEYQCQNLYQLEGNKRITCRNGQWSEPPKCLHPCVISREIMENYNIALRWTAKQKLYSRTGESVEFVCKRGYRLSSRSHTLRTTCWDGKLEYPTCAKR | 144 | 110 | 104
